What was measured:
[1] = molecular target: monkey GPC3-His protein (monkey); experiment: ELISA, coated monkey GPC3-His, antibody 1 nM
[2] = molecular target: monkey GPC3-His protein (monkey); experiment: ELISA, coated monkey GPC3-His, antibody 10 nM
[3] = molecular target: murine GPC3-His protein (murine) (UniProt Q8CFZ4); experiment: ELISA, coated murine GPC3-His, antibody 10 nM
[4] = molecular target: human GPC3, full length, on cells (human) (UniProt P51654); experiment: FACS on CHO-K1-human GPC3 cells
[5] = molecular target: human GPC3, full length, on cells (human) (UniProt P51654); experiment: FACS on CHO-K1 clone CHOK1-hGPC3.2B5
[6] = molecular target: human GPC3-His protein (human) (UniProt P51654); experiment: ELISA, coated human GPC3-His, antibody 0.0001 nM
[7] = molecular target: human GPC3-His protein (human) (UniProt P51654); experiment: ELISA, coated human GPC3-His, antibody 0.01 nM
[8] = molecular target: human GPC3-His protein (human) (UniProt P51654); experiment: ELISA, coated human GPC3-His, antibody 100 nM
[9] = molecular target: murine GPC3-His protein (murine) (UniProt Q8CFZ4); experiment: ELISA, coated murine GPC3-His, antibody 0.01 nM
[10] = molecular target: Polypeptide GC3pep of human GPC3 (Ala524-Lys563) (human); experiment: ELISA, coated GC3pep, antibody 100 nM
[11] = molecular target: human GPC3, full length, on cells (human) (UniProt P51654); experiment: FACS on HepG2 cells
[12] = molecular target: monkey GPC3-His protein (monkey); experiment: ELISA, coated monkey GPC3-His, antibody 0.1 nM
[13] = molecular target: human GPC3-His protein (human) (UniProt P51654); experiment: ELISA, coated human GPC3-His, antibody 0.001 nM
[14] = molecular target: human GPC3, full length, on cells (human) (UniProt P51654); experiment: FACS on HepG2 cells, control in the row of T2-23
[15] = molecular target: monkey GPC3-His protein (monkey); experiment: ELISA, coated monkey GPC3-His, antibody 100 nM
[16] = molecular target: monkey GPC3-His protein (monkey); experiment: ELISA, coated monkey GPC3-His, antibody 1 nM; remark: listed apart in the source
[17] = molecular target: Polypeptide GC3pep of human GPC3 (Ala524-Lys563) (human); experiment: ELISA, coated GC3pep, antibody 1 nM
[18] = molecular target: monkey GPC3-His protein (monkey); experiment: ELISA, coated monkey GPC3-His, antibody 0.001 nM
[19] = molecular target: monkey GPC3-His protein (monkey); experiment: ELISA, coated monkey GPC3-His, antibody 0.01 nM
[20] = molecular target: human GPC3, full length, on cells (human) (UniProt P51654); experiment: FACS on CHO-K1 clone CHOK1-hGPC3.3E9
[21] = molecular target: Polypeptide GC3pep of human GPC3 (Ala524-Lys563) (human); experiment: ELISA, coated GC3pep, antibody 0.1 nM
[22] = molecular target: murine GPC3-His protein (murine) (UniProt Q8CFZ4); experiment: ELISA, coated murine GPC3-His, antibody 0.0001 nM
[23] = molecular target: human GPC3-His protein (human) (UniProt P51654); experiment: ELISA, coated human GPC3-His, antibody 0.01 nM; remark: listed apart in the source
[24] = molecular target: monkey GPC3-His protein (monkey); experiment: ELISA, coated monkey GPC3-His, antibody 0.01 nM; remark: listed apart in the source
[25] = molecular target: Polypeptide GC3pep of human GPC3 (Ala524-Lys563) (human); experiment: ELISA, coated GC3pep, antibody 0.01 nM
[26] = molecular target: monkey GPC3-His protein (monkey); experiment: ELISA, coated monkey GPC3-His, antibody 10 nM; remark: listed apart in the source
[27] = molecular target: monkey GPC3-His protein (monkey); experiment: ELISA, coated monkey GPC3-His, antibody 100 nM; remark: listed apart in the source
[28] = molecular target: human GPC3-His protein (human) (UniProt P51654); experiment: ELISA, coated human GPC3-His, antibody 10 nM
[29] = molecular target: Polypeptide GC3pep of human GPC3 (Ala524-Lys563) (human); experiment: ELISA, coated GC3pep, antibody 0.0001 nM
[30] = molecular target: human GPC3-His protein (human) (UniProt P51654); experiment: ELISA, coated human GPC3-His, antibody 0.1 nM
[31] = molecular target: murine GPC3-His protein (murine) (UniProt Q8CFZ4); experiment: ELISA, coated murine GPC3-His, antibody 100 nM
[32] = molecular target: human GPC3-His protein (human) (UniProt P51654); experiment: ELISA, coated human GPC3-His, antibody 0.001 nM; remark: listed apart in the source
[33] = molecular target: murine GPC3-His protein (murine) (UniProt Q8CFZ4); experiment: ELISA, coated murine GPC3-His, antibody 0.001 nM
[34] = molecular target: monkey GPC3, full length, on HEK293T cells (monkey); experiment: FACS on HEK293T-monkey GPC3 cells
[35] = molecular target: monkey GPC3-His protein (monkey); experiment: ELISA, coated monkey GPC3-His, antibody 0.1 nM; remark: listed apart in the source
[36] = molecular target: human GPC3-His protein (human) (UniProt P51654); experiment: ELISA, coated human GPC3-His, antibody 10 nM; remark: listed apart in the source
[37] = molecular target: Polypeptide GC3pep of human GPC3 (Ala524-Lys563) (human); experiment: ELISA, coated GC3pep, antibody 10 nM
[38] = molecular target: human GPC3, full length, on cells (human) (UniProt P51654); experiment: FACS on CHO-K1 clone CHOK1-hGPC3.1C3
[39] = molecular target: murine GPC3-His protein (murine) (UniProt Q8CFZ4); experiment: ELISA, coated murine GPC3-His, antibody 10 nM; remark: listed apart in the source
[40] = molecular target: human GPC3-His protein (human) (UniProt P51654); experiment: ELISA, coated human GPC3-His, antibody 100 nM; remark: listed apart in the source
[41] = molecular target: monkey GPC3-His protein (monkey); experiment: ELISA, coated monkey GPC3-His, antibody 0.0001 nM
[42] = molecular target: murine GPC3-His protein (murine) (UniProt Q8CFZ4); experiment: ELISA, coated murine GPC3-His, antibody 0.001 nM; remark: listed apart in the source
[43] = molecular target: murine GPC3-His protein (murine) (UniProt Q8CFZ4); experiment: ELISA, coated murine GPC3-His, antibody 0.01 nM; remark: listed apart in the source
[44] = molecular target: human GPC3-His protein (human) (UniProt P51654); experiment: ELISA, coated human GPC3-His, antibody 1 nM
[45] = molecular target: murine GPC3-His protein (murine) (UniProt Q8CFZ4); experiment: ELISA, coated murine GPC3-His, antibody 1 nM
[46] = molecular target: human GPC3, full length, on cells (human) (UniProt P51654); experiment: FACS on HepG2 cells, control in the row of Y035
[47] = molecular target: monkey GPC3-His protein (monkey); experiment: ELISA, coated monkey GPC3-His, antibody 0.001 nM; remark: listed apart in the source
[48] = molecular target: murine GPC3-His protein (murine) (UniProt Q8CFZ4); experiment: ELISA, coated murine GPC3-His, antibody 0.0001 nM; remark: listed apart in the source
[49] = molecular target: Polypeptide GC3pep of human GPC3 (Ala524-Lys563) (human); experiment: ELISA, coated GC3pep, antibody 100 nM; remark: listed apart in the source
[50] = molecular target: human GPC3-His protein (human) (UniProt P51654); experiment: ELISA, coated human GPC3-His, antibody 0.1 nM; remark: listed apart in the source
[51] = molecular target: murine GPC3-His protein (murine) (UniProt Q8CFZ4); experiment: ELISA, coated murine GPC3-His, antibody 100 nM; remark: listed apart in the source
[52] = molecular target: Polypeptide GC3pep of human GPC3 (Ala524-Lys563) (human); experiment: ELISA, coated GC3pep, antibody 0.001 nM
[53] = molecular target: murine GPC3-His protein (murine) (UniProt Q8CFZ4); experiment: ELISA, coated murine GPC3-His, antibody 0.1 nM
[54] = molecular target: monkey GPC3-His protein (monkey); experiment: ELISA, coated monkey GPC3-His, antibody 0.0001 nM; remark: listed apart in the source
[55] = molecular target: human GPC3-His protein (human) (UniProt P51654); experiment: ELISA, coated human GPC3-His, antibody 1 nM; remark: listed apart in the source
[56] = molecular target: human GPC3-His protein (human) (UniProt P51654); experiment: ELISA, coated human GPC3-His, antibody 0.0001 nM; remark: listed apart in the source

Sequence of Polypeptide GC3pep of human GPC3 (Ala524-Lys563) (human) (peptide, as listed by the source): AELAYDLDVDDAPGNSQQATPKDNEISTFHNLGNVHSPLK
Sequence of UniProt Q8CFZ4 (Q8CFZ4 25-558 limits assumed): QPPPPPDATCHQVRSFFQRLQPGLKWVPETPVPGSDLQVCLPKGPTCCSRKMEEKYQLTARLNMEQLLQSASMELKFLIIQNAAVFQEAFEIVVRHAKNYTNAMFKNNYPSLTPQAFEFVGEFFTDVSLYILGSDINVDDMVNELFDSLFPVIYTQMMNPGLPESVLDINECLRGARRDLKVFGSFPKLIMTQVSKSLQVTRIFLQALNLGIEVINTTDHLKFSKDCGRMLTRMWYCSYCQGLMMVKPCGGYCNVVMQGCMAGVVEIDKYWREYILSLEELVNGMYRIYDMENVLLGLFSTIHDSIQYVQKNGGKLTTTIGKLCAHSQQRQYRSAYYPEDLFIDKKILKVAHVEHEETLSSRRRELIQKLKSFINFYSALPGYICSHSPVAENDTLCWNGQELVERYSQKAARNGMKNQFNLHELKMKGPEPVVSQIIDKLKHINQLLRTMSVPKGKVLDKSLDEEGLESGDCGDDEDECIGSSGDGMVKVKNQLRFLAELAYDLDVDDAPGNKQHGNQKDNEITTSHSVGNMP

- OD450 [1]: 0.044
- OD450 [2]: 0.047
- OD450 [3]: 0.055
- Max MFI [4]: 82
- Mean fluorescence intensity of cells [5]: 19.3
- OD450 [6]: 0.09
- OD450 [7]: 0.1
- OD450 [8]: 0.072
- OD450 [9]: 0.052
- OD450 [10]: 0.069
- Max MFI [11]: 110
- OD450 [12]: 0.04
- OD450 [13]: 0.09
- Mean fluorescence intensity of cells [14]: 137
- OD450 [15]: 0.19
- OD450 [16]: 0.05
- OD450 [17]: 0.04
- OD450 [18]: 0.044
- OD450 [19]: 0.05
- Mean fluorescence intensity of cells [20]: 19.3
- OD450 [21]: 0.04
- OD450 [22]: 0.049
- OD450 [23]: 0.048
- OD450 [24]: 0.044
- OD450 [25]: 0.046
- OD450 [26]: 0.08
- OD450 [27]: 0.056
- OD450 [28]: 0.1
- OD450 [29]: 0.06
- OD450 [30]: 0.05
- OD450 [31]: 0.105
- OD450 [32]: 0.048
- OD450 [33]: 0.05
- Max MFI [34]: 95
- OD450 [35]: 0.045
- OD450 [36]: 0.05
- OD450 [37]: 0.04
- Mean fluorescence intensity of cells [38]: 19.3
- OD450 [39]: 0.07
- OD450 [40]: 0.09
- OD450 [41]: 0.048
- OD450 [42]: 0.051
- OD450 [43]: 0.05
- OD450 [44]: 0.09
- OD450 [45]: 0.05
- Mean fluorescence intensity of cells [46]: 137
- OD450 [47]: 0.04
- OD450 [48]: 0.05
- OD450 [49]: 0.06
- OD450 [50]: 0.09
- OD450 [51]: 0.08
- OD450 [52]: 0.046
- OD450 [53]: 0.05
- OD450 [54]: 0.05
- OD450 [55]: 0.048
- OD450 [56]: 0.047
Substance: human IgG1 subtype control (antibody)

Source: US20240301085A1
